Tests used:
[1] = biological target: human CD27 (wild type), expressed on cells (human) (UniProt P26842); experiment: flow cytometry on primary T cells
[2] = biological target: Q91A; experiment: flow cytometry, CHO-K1; sub-column 1 of 2
[3] = biological target: N88A; experiment: flow cytometry, CHO-K1; sub-column 1 of 2
[4] = biological target: H60A; experiment: flow cytometry, CHO-K1; sub-column 1 of 2
[5] = biological target: D32A; experiment: flow cytometry, CHO-K1; sub-column 1 of 2
[6] = biological target: R10A; experiment: flow cytometry, CHO-K1; sub-column 1 of 2
[7] = biological target: human CD27 (wild type), expressed on cells (human) (UniProt P26842); experiment: flow cytometry MFI on CD4+ T cells from peripheral blood
[8] = biological target: Macaca mulatta CD27 (mmCD27), expressed on cells (Macaca mulatta (rhesus); same entry given for cynomolgus monkey); experiment: flow cytometry MFI on CD8+ T cells from rhesus peripheral blood
Chain of Macaca mulatta CD27 (mmCD27), expressed on cells (Macaca mulatta (rhesus); same entry given for cynomolgus monkey) (chain, as listed by the source): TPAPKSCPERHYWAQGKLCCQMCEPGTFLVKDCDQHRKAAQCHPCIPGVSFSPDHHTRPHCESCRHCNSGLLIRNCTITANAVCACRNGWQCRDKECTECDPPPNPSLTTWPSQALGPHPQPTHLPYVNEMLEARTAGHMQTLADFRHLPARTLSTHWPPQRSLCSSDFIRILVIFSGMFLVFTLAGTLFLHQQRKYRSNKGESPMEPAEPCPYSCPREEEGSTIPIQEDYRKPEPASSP

fold higher EC50 compared to 131AVH6VL6-hIgG1 [1]: 5 fold
% of WT hCD27 binding (geo mean FITC) [2]: 156%
% of WT hCD27 binding (geo mean FITC) [3]: 153%
% of WT hCD27 binding (geo mean FITC) [4]: 176%
% of WT hCD27 binding (geo mean FITC) [5]: 115%
% of WT hCD27 binding (geo mean FITC) [6]: 105%
EC50 [7]: 1.54 nM
EC50 [8]: 1.92 nM
Substance: 1F5 hIgG1 (antibody)

From US20190300618A1 (Merck Sharp & Dohme, published 2019)
